In this assay the target is SARS-CoV-2 spike protein (full length) (SARS-CoV-2) (UniProt P0DTC2). As to the kind of experiment: ELISA, GRP78-HRP on plate-bound spike protein. Background: An ELISA detects its analyte on a solid surface through an enzyme-linked reagent.

Kd data for one substance are collected here from US20260242447A1.

Sequence of GRP78 (soluble / recombinant protein), P11021 19-654 (other; other documents disagree on this pair) (P11021 19-654 limits assumed): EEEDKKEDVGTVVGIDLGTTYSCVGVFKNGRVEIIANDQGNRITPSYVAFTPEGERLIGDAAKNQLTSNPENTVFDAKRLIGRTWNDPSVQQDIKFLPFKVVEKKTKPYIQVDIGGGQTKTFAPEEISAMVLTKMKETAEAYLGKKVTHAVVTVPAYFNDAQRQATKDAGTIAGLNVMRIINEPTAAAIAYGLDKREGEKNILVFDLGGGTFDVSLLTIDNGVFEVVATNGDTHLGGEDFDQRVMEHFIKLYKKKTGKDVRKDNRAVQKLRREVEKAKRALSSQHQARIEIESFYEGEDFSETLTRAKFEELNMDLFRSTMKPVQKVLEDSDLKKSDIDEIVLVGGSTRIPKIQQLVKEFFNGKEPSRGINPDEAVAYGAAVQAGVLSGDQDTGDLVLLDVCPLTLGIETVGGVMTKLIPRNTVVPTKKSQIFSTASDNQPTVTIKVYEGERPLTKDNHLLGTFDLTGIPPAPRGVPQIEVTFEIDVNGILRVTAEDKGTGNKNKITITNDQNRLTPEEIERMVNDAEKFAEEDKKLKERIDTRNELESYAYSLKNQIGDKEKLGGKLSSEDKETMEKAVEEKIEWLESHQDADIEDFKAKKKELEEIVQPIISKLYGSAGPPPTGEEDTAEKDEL

The term Kd denotes the equilibrium constant for the complex coming apart. Substance “GRP78 (soluble / recombinant protein), P11021 19-654 (other; other documents disagree on this pair)” registered a Kd of 293 nM.
